Consider 19 sequences from the DeepSol protein solubility set.

This series in a line: soluble on expression in E. coli; label from the status in PepcDB or PDB records.
Regarding “MAHHHHHHMAVPHGMLISRNDITPDSLVDVPGDRKIVEQISNTMANSSLFKMEKEDHTLANLLRMKLHESPFVQIAGYRVPHPTKHNVELRVQTASNGTDAPVPAPKKALQDAVDGCLKDLEVFEEQLRREAQLKGLEASPS”, the “soluble on expression in E. coli” value is recorded as “not soluble”. Take “MAITAKNAQLYGLDLELGLETGLAADVDNDSMSGLVLVELLSPYHQLETRFKLESQTALAFQAMADSAAKDGIKLAICSAYRPFDRQLAIWNAKASGKRVVLDINEQPVDITPLSESELVDLILLWSALPGASRHHWGTDIDVFDAEKIEVKSLRLVEAEYRDGGPCAQLHQWLVANAKDFGFYFPFQRGQSAVSAEPWHISYFPVSQILLPQFEVQALTQIIAHSDMLLKDAVLARLPELVAEYVHRIAQP”: the “soluble on expression in E. coli” value is on record as “soluble”. On to “MTTPLKKIVIVGGGAGGLEMATQLGHKLGRKKKAKITLVDRNHSHLWKPLLHEVATGSLDEGVDALSYLAHARNHGFQFQLGSVIDIDREAKTITIAELRDEKGELLVPERKIAYDTLVMALGSTSNDFNTPGVKENCIFLDNPHQARRFHQEMLNLFLKYSANLGANGKVNIAIVGGGATGVELSAELHNAIKQLHSYGYKGLTNEALNVTLVEAGERILPALPPRISAAAHNELTKLGVRVLTQTMVTSADEGGLHTKDGEYIEADLMVWAAGIKAPDFLKDIGGLETNRINQLVVEPTLQTTRDPDIYAIGDCASCPRPEGGFVPPRAQAAHQMATCAMNNILAQMNGKPLKNYQYKDHGSLVSLSNFSTVGSLMGNLTRGSMMIEGRIARFVYISLYRMHQIALHGYFKTGLMMLVGSINRVIRPRLKLH”, for which the “soluble on expression in E. coli” value is reported as “not soluble”. On to “MPAIKSSADLRNNYNEISTFCHNYPEPVFITKNGKGDLAVMSIEAYEGLTSRFELYSQIKEGMDDIATGNTRPFSEAMADIRSRRSRLEHHHHHH”, for which the “soluble on expression in E. coli” value was “not soluble”. The value for “MGSDKIHHHHHHMTVVDDEKPAQAASGRFAAGEDPAKRDQILDGAKRAFMKHGFDAASMNDVTREAGVSKGTIYVYFQSKEDLFAALINNQKQKFAASMRDILAEETDLHMALRRYALAFTNYILTSEMIPAMRMLLAVQDRMPHLCQSFMRSGPENVRTVLEDYLEVQVKAGRLDIADTELAARQYIELATGAYFKKRLFGEIEVPPPQAEIDYIIDNALHIFLLAYDRKAENGPEAQRAN” was “not soluble”. “SLIENSHVKKDDIWPSGGQMTVKDLTAKYTEGGNAILENISFSISPGQRVGLLGRTGSGKSTLLSAFLRLLNTEGEIQIDGVSWDSITLEQWRKAFGVIPQKVFIFSGTFRKNLDPYEQWSDQEIWKVADEVGLRSVIEQFPGKLDFVLVDGGCVLSHGHKQLMCLARSVLSKAKILLLDEPSAHLDPVTYQIIRRTLKQAFADCTVILCEARIEAMLECDQFLVIEENKVRQYDSILELYHYPADRFVAGFIGSPKMNFLPVKVTATAIDQVQVELPMPNRQQVWLPVESRDVQVGANMSLGIRPEHLLPSDIADVILEGEVQVVEQLGNETQIHIQIPSIRQNLVYRQNRVVLVEEGATFAIGLPPERCHLFREDGTACRRLHKEPGV”: the “soluble on expression in E. coli” value was “soluble”. As for “MRSRPTEGNLLVSIGIPFLNPGPYLDLAVRSVFAQTYLNWELILVDDGSTDGSYERAVAIQDPRVRVLRDGQNKGLPARLNEIVRLAKGELVARMDADDAMHPLRLEKQVGFLQANPELDGVTTGAYLIDAEDRPIALLPGRQPSAQEVLARGGFLHPSLLARKSWFEAHPYSLDYPRAEDRELFVRTFKTSRLHVLSEPLYFYRWFGVPRGKTLRIGYRSERKVMWKYGPNLVGWGPSLRLIALSFGKELLTWFLEWTHLEKGFQTRRAFQPLLEMDQREALRTLKVIRETCVPGWD”, the “soluble on expression in E. coli” value is “soluble”. “MGSDKIHHHHHHMNKELFCIENLRVAYPQRSGEELQWAIDDVSFTLQPGERMGLVGESGCGKSTLGRAAMRLLPPSSLVEGRVTFQGKSVFDLTPNELRKFRGEAVALIFQDPMTRLDPLMTIGNHCIETLQAHAPELSAKEAKEKALATLEKVKIPASRWGQYPHEFSGGMRQRVAIALALLLNPKLIVADEPTTSLDVTVSAQILQELTRLCSEENMALLLISHDLAMVAEYCSRIGVMYNGKMVEMGTTESVFKNPQHEYTRSLLKAALHIQAVDEGSSEASQSPIPSPQSPILRITELKQYYTIEPNFVERLFKAESQTIKAVDGINLELYPGEILGLVGESGCGKSTLSRTILQLIRPTSGKVEFLGQDLTKLSRQEIRACRRQIQMVFQDPHACLNPAMTVGESIADPLLIHHLADAAKAKEQVLWMLQKVGLTPPEVYYQRYPSDLSGGQQQRVAIARALITRPKMLICDEPVSMLDASVQSQVLDLMLQLKEEFELTYLFITHDLWLARFLCDRIAVMHGGKIVELGETKQIFAHPQHPYTQTLLAAAPLLARA”: the “soluble on expression in E. coli” value is given as “not soluble”.

On to “GPHMTTIEDEDTKVRKQEIIKVTEQLIEAISNGDFESYTKMCDPGMTAFEPEALGNLVEGLDFHRFYFENLWSRNSKPVHTTILNPHIHLMGDESACIAYIRITQYLDAGGIPRTAQSEETRVWHRRDGKWQIVHFHRSGAPSVLPH”, for which the “soluble on expression in E. coli” value is reported as “soluble”.

With “MAKEINLTGEEVVALAAKYMNETDAAFVKKALDYATAAHFYQVRKSGEPYIVHPIQVAGILADLHLDAVTVACGFLHDVVEDTDITLDNIEFDFGKDVRDIVDGVTKLGKVEYKSHEEQLAENHRKMLMAMSKDIRVILVKLADRLHNMRTLKHLRKDKQERISRETMEIYAPLAHRLGISRIKWELEDLAFRYLNETEFYKISHMMNEKRREREALVDDIVTKIKSYTTEQGLFGDVYGRPKHIYSIYRKMRDKKKRFDQIFDLIAIRCVMETQSDVYAMVGYIHELWRPMPGRFKDYIAAPKANGYQSIHTTVYGPKGPIEIQIRTKEMHQVAEYGVAAHWAYKKGVRGKVNQAEQKVGMNWIKELVELQDASNGDAVDFVDSLEHHHHHH”, the “soluble on expression in E. coli” value was “soluble”. As to “MGLRDRFSNYLFKKAEKRGYLDNVLGKSIRYSGVYVTDSNILQSSDVYELLQDISNQMVLADIVVEDEFGNEIKDDIALQILRNPNNYLTQSEFIKLMTNTYLLEGETFPILNGAQIHLASNVFTELDDNLVEHFNIGGHEIPPCMIRHVKNIGADHLRGKGILDLGRDTLEGVMSAEKTLTDKYKKGGLLTFLLNLDAHINPQNGAQSKLINAILDQLESIDEARSVKMIPLGKGYSIDTLKSPLDDEKTLAYLNVYKKDLGKFLGINVDTYTELIKEDIEKAMMYIHNKAVRPIMKNFEDHLSLLFYAQNSGKRIKFKINILDFVTYSNKTNIGYNLVRTAITSPDNVADMLGFPKQNTKESQAIYISNDVTEIGKKEATDGSLGGGEENEN”, the “soluble on expression in E. coli” value was “not soluble”. As for “MKHIHIIGIGGTFMGGLAAIAKEAGFEVSGCDAKMYPPMSTQLEALGIDVYEGFDAAQLDEFKADVYVIGNVAKRGMDVVEAILNLGLPYISGPQWLSENVLHHHWVLGVAGTHGKTTTASMLAWVLEYAGLAPGFLIGGVPENFGVSARLPQTPRQDPNSQSPFFVIEADEYDTAFFDKRSKFVHYRPRTAVLNNLEFDHADIFADLGAIQTQFHYLVRTVPSEGLIVCNGRQQSLQDTLDKGCWTPVEKFGTEHGWQAGEANADGSFDVLLDGKTAGRVKWDLMGRHNRMNALAVIAAARHVGVDIQTACEALGAFKNVKRRMEIKGTANGITVYDDFAHHPTAIETTIQGLRQRVGGARILAVLEPRSNTMKLGTMKSALPVSLKEADQVFCYAGGVDWDVAEALAPLGGRLNVGKDFDAFVAEIVKNAEVGDHILVMSNGGFGGIHGKLLEALR”, the “soluble on expression in E. coli” value was “soluble”.

“MGSDKIHHHHHHMGNYLVLQSDFGLSDGAVSAMYGVAYTVSDDIRVENLTHDIPPYDIWVASYRLYQTVKYWPKGTVFVSVVDPGVGSDRRSIACLTYSGHYIITPDNGSLSHIKHYEGIKKVIEIDEVKSRLPHSEESHTFHGRDVYAYNGARLAANKIAFERLGQAINVDSIEALEIREATKNEDSVTGSIDILDIRFGSLWTNIPLAFLKSLEIVHGNNLVVTIYHQDKKVYQNIIKFARSFADVNVGEPLVYVNSLVNIGVAVNQDSFSDLYHIGTGNDWTIHLSKAPSI”: the “soluble on expression in E. coli” value was “not soluble”. With “MSLNKKLYIGMVGILSLMMVGCNKSLAKVNDVEITKEQYKKTKAVLSATNNYINGQSLDELEKTLDKKGRNKLENVIISFMVDNELLYQEAKDKGLTPSKSEVDSKYQELEDKMNLNTSYKEKMDKAGVDKDYLKQEISRDLAIDKNKKAFEDRINISDNDMEAYYTSHKKDFNVEEVSASQILISTLDKNKKEVSKDKKEALKKKADNILTKIKNGESFESLAKKYSDDKATGKNGGQLGYFTKDDKNAEFTKEVFKLKKNEVSNVFETSYGYHIVKVTDKRERQKSFNECQSLIRESILNEKYIEHIKKLNEDAKIDREGHHHHHH”, the “soluble on expression in E. coli” value is “soluble”. The value for “MKLLLIGYGNVGKAFRRLLHEKKDNYPILQGVEIAGIITRQGLMVGDKENFSPDKQLTVLEAIDYINPDVIVDMSVPNYKDGEPSVSAYIKALSRKIHVITVNKAPLALKFREIFEVAEKTGAKIGFQGTVMSGTPSINLFRIQPVAEVSRIRGILNGTTNYILTRIYEGLSFNEALKEAKEKGYAEEDPTLDLNGFDAAAKLTILSNFIMNRSLKLGDFKFKGITEITNEEIRRAKSEGKKIKLIAYADNYVVQVSPQIIGPQDPLYYIDGVENALEIQNEIQRIIIRGPGAGPINAAYGALSDLVLLLEGCL” was “not soluble”. As for “MNTMKNVTKRSFQTIAIVGKPRHDNALETHLAVYNWLKDRHYSVLVEEKIAEQLQLPNGKRIEEIGQIADLVIVIGGDGNMLGMARSLAKYQVPLIGINRGNLGFLTDIAPQSAFEQLYSCLEKGEFIIEQRFLLEAQIEQNGKIISANNALNEVAIHPTQVARIIEFEVYIDSKFAFSQRSDGLIIATPTGSTAYSLSAGGPILTPNMNAIALVPMHPHALSSRPLVIDGDSHISLRFAQYNQPNLEISCDGQDDLPFTPEDRIIVRKSPDILHLLHLKDYNYFTVLGSKLGWSSKLF”, the entry is “soluble”; as for “MERPRFSNYYAVRVTGGQEINVALMIEERIKTNNIKEVYSIIVPPNVKGYVILEATGPHVVKLVSQGIRHVRGFAQGLVQKDDIIKFISKTTIAPAYKVGDMVEVTSGPFRGMQAQVVRIDSAKNEVVLNILESSFPLQVTVPIDQVKPVKK”, “soluble”.

Regarding “MSLPDHSLFRLRILPWCIALAMSGSYSSVWAEDDIQFDSRFLELKGDTKIDLKRFSSQGYVEPGKYNLQVQLNKQPLAEEYDIYWYAGEDDVSKSYACLTPELVAQFGLKEDVAKNLQWSHDGKCLKPGQLEGVEIKADLSQSALVISLPQAYLEYTWPDWDPPSRWDDGISGIIADYSITAQTRHEENGGDDSNEISGNGTVGVNLGPWRMRADWQTNYQHTRSNDDDDEFGGDDTQKKWEWSRYYAWRALPSLKAKLALGEDYLNSDIFDGFNYVGGSVSTDDQMLPPNLRGYAPDISGVAHTTAKVTVSQMGRVIYETQVPAGPFRIQDLGDSVSGTLHIRIEEQNGQVQEYDISTASMPYLTRPGQVRYKIMMGRPQEWGHHVEGGFFSGAEASWGIANGWSLYGGALGDENYQSAALGVGRDLSTFGAVAFDVTHSHTKLDKDTAYGKGSLDGNSFRVSYSKDFDQLNSRVTFAGYRFSEENFMTMSEYLDASDSEMVRTGNDKEMYTATYNQNFRDAGVSVYLNYTRHTYWDREEQTNYNIMLSHYFNMGSIRNMSVSLTGYRYEYDNRADKGMEGHHHHHH”, the “soluble on expression in E. coli” value is “not soluble”. The value for MPVEEKKKGMAIHSSLSLSLSLSLSLSLSLCDSEREG was “not soluble”.
